# Assay results reported in patent US20240270846A1 (published 2024).
# Residue numbers refer to the chain shown, from its start. Names and notes keep the numbering of the source.
# B1: GLS3000 S56V one-arm antibody (antibody, human IgG1, kappa, L234A L235A, N297A, name in Kabat numbering)
# light: DIVMTQSPLSLPVTPGEPASISCRSSQSLVHSNRNTYLHWYQQKPGQAPRLLIYKVSNRFVGVPDRFSGSGSGTDFTLKISRVEAEDVGVYYCGQGTQVPYTFGQGTKLEIKRTVAAPSVFIFPPSDEQLKSGTASVVCLLNNFYPREAKVQWKVDNALQSGNSQESVTEQDSKDSTYSLSSTLTLSKADYEKHKVYACEVTHQGLSSPVTKSFNRGEC
# heavy: QVQLVESGGGVVQPGRSLRLSCAASGFTFSNAWMHWVRQAPGKGLEWVAQIKAKSNNYATYYAESVKGRFTISRDDSKNSLYLQMNSLKTEDTAVYYCRYVHYGAYYGVDAWGQGTTVTVSSASTKGPSVFPLAPSSKSTSGGTAALGCLVKDYFPEPVTVSWNSGALTSGVHTFPAVLQSSGLYSLSSVVTVPSSSLGTQTYICNVNHKPSNTKVDKKVEPKSCDKTHTCPPCPAPEAAGGPSVFLFPPKPKDTLMISRTPEVTCVVVDVSHEDPEVKFNWYVDGVEVHNAKTKPREEQYASTYRVVSVLTVLHQDWLNGKEYKCKVSNKALPAPIEKTISKAKGQPREPQVYTLPPSRCELTKNQVSLSCAVKGFYPSDIAVEWESNGQPENNYKTTPPVLDSDGSFFLVSKLTVDKSRWQQGNVFSCSVMHEALHNHYTQKSLSLSPDYKDDDDK
# chain: EPKSSDKTHTCPPCPAPELLGGPSVFLFPPKPKDTLMISRTPEVTCVVVDVSHEDPEVKFNWYVDGVEVHNAKTKPREEQYNSTYRVVSVLTVLHQDWLNGKEYKCKVSNKALPAPIEKTISKAKGQPREPQVCTLPPSRDELTKNQVSLWCLVKGFYPSDIAVEWESNGQPENNYKTTPPVLDSDGSFFLYSKLTVDKSRWQQGNVFSCSVMHEALHNRYTQKSLSLSP
# B2: GLS3000 V94K one-arm antibody (antibody, human IgG1, kappa, L234A L235A, N297A, name in Kabat numbering)
# light: B1 light with V61S, V99K
# heavy: B1 heavy
# chain: B1 chain
# B3: GLS3000 V94P one-arm antibody (antibody, human IgG1, kappa, L234A L235A, N297A, name in Kabat numbering)
# light: B1 light with V61S, V99P
# heavy: B1 heavy
# chain: B1 chain
# B4: GLS3000 V94E one-arm antibody (antibody, human IgG1, kappa, L234A L235A, N297A, name in Kabat numbering)
# light: B1 light with V61S, V99E
# heavy: B1 heavy
# chain: B1 chain
# B5: GLS3000 V94G one-arm antibody (antibody, human IgG1, kappa, L234A L235A, N297A, name in Kabat numbering)
# light: B1 light with V61S, V99G
# heavy: B1 heavy
# chain: B1 chain
# B6: GLS3000 V94H one-arm antibody (antibody, human IgG1, kappa, L234A L235A, N297A, name in Kabat numbering)
# light: B1 light with V61S, V99H
# heavy: B1 heavy
# chain: B1 chain
# B7: GLS3000 V94M one-arm antibody (antibody, human IgG1, kappa, L234A L235A, N297A, name in Kabat numbering)
# light: B1 light with V61S, V99M
# heavy: B1 heavy
# chain: B1 chain
# B8: GLS3000 V51I one-arm antibody (antibody, human IgG1, kappa, L234A L235A, N297A, name in Kabat numbering)
# light: B1 light with V56I, V61S
# heavy: B1 heavy
# chain: B1 chain
# B9: GLS3000 V51P one-arm antibody (antibody, human IgG1, kappa, L234A L235A, N297A, name in Kabat numbering)
# light: B1 light with V56P, V61S
# heavy: B1 heavy
# chain: B1 chain
# B10: GLS3000 T92I one-arm antibody (antibody, human IgG1, kappa, L234A L235A, N297A, name in Kabat numbering)
# light: B1 light with V61S, T97I
# heavy: B1 heavy
# chain: B1 chain
# B11: GLS3000 V94I one-arm antibody (antibody, human IgG1, kappa, L234A L235A, N297A, name in Kabat numbering)
# light: B1 light with V61S, V99I
# heavy: B1 heavy
# chain: B1 chain
# B12: GLS3000 T97P one-arm antibody (antibody, human IgG1, kappa, L234A L235A, N297A, name in Kabat numbering)
# light: B1 light with V61S, T102P
# heavy: B1 heavy
# chain: B1 chain
# B13: GLS3000 T31N one-arm antibody (antibody, human IgG1, kappa, L234A L235A, N297A, name in Kabat numbering)
# light: B1 light with T36N, V61S
# heavy: B1 heavy
# chain: B1 chain
# B14: GLS3000 V94N one-arm antibody (antibody, human IgG1, kappa, L234A L235A, N297A, name in Kabat numbering)
# light: B1 light with V61S, V99N
# heavy: B1 heavy
# chain: B1 chain
# B15: GLS3000 V94D one-arm antibody (antibody, human IgG1, kappa, L234A L235A, N297A, name in Kabat numbering)
# light: B1 light with V61S, V99D
# heavy: B1 heavy
# chain: B1 chain
# B16: GLS3000 S56Y one-arm antibody (antibody, human IgG1, kappa, L234A L235A, N297A, name in Kabat numbering)
# light: B1 light with V61Y
# heavy: B1 heavy
# chain: B1 chain
# B17: GLS3000 V94F one-arm antibody (antibody, human IgG1, kappa, L234A L235A, N297A, name in Kabat numbering)
# light: B1 light with V61S, V99F
# heavy: B1 heavy
# chain: B1 chain
# B18: GLS3000 V94L one-arm antibody (antibody, human IgG1, kappa, L234A L235A, N297A, name in Kabat numbering)
# light: B1 light with V61S, V99L
# heavy: B1 heavy
# chain: B1 chain
# B19: GLS3000 T31E one-arm antibody (antibody, human IgG1, kappa, L234A L235A, N297A, name in Kabat numbering)
# light: B1 light with T36E, V61S
# heavy: B1 heavy
# chain: B1 chain
# B20: GLS3000 V51G one-arm antibody (antibody, human IgG1, kappa, L234A L235A, N297A, name in Kabat numbering)
# light: B1 light with V56G, V61S
# heavy: B1 heavy
# chain: B1 chain
# B21: GLS3000 T31I one-arm antibody (antibody, human IgG1, kappa, L234A L235A, N297A, name in Kabat numbering)
# light: B1 light with T36I, V61S
# heavy: B1 heavy
# chain: B1 chain
# B22: GLS3000 T92P one-arm antibody (antibody, human IgG1, kappa, L234A L235A, N297A, name in Kabat numbering)
# light: B1 light with V61S, T97P
# heavy: B1 heavy
# chain: B1 chain
# B23: GLS3000 T92D one-arm antibody (antibody, human IgG1, kappa, L234A L235A, N297A, name in Kabat numbering)
# light: B1 light with V61S, T97D
# heavy: B1 heavy
# chain: B1 chain
# B24: GLS3000 V51E one-arm antibody (antibody, human IgG1, kappa, L234A L235A, N297A, name in Kabat numbering)
# light: B1 light with V56E, V61S
# heavy: B1 heavy
# chain: B1 chain
# B25: GLS3000 T31P one-arm antibody (antibody, human IgG1, kappa, L234A L235A, N297A, name in Kabat numbering)
# light: B1 light with T36P, V61S
# heavy: B1 heavy
# chain: B1 chain
# B26: GLS3000 T92S one-arm antibody (antibody, human IgG1, kappa, L234A L235A, N297A, name in Kabat numbering)
# light: B1 light with V61S, T97S
# heavy: B1 heavy
# chain: B1 chain
# B27: GLS3000 T92A one-arm antibody (antibody, human IgG1, kappa, L234A L235A, N297A, name in Kabat numbering)
# light: B1 light with V61S, T97A
# heavy: B1 heavy
# chain: B1 chain
# B28: GLS3000 T92L one-arm antibody (antibody, human IgG1, kappa, L234A L235A, N297A, name in Kabat numbering)
# light: B1 light with V61S, T97L
# heavy: B1 heavy
# chain: B1 chain
# B29: GLS3000 S56W one-arm antibody (antibody, human IgG1, kappa, L234A L235A, N297A, name in Kabat numbering)
# light: B1 light with V61W
# heavy: B1 heavy
# chain: B1 chain
# B30: GLS3000 T92E one-arm antibody (antibody, human IgG1, kappa, L234A L235A, N297A, name in Kabat numbering)
# light: B1 light with V61S, T97E
# heavy: B1 heavy
# chain: B1 chain
# B31: GLS3000 V94Q one-arm antibody (antibody, human IgG1, kappa, L234A L235A, N297A, name in Kabat numbering)
# light: B1 light with V61S, V99Q
# heavy: B1 heavy
# chain: B1 chain
# B32: GLS3000 V94R one-arm antibody (antibody, human IgG1, kappa, L234A L235A, N297A, name in Kabat numbering)
# light: B1 light with V61S, V99R
# heavy: B1 heavy
# chain: B1 chain
# B33: GLS3000 T31K one-arm antibody (antibody, human IgG1, kappa, L234A L235A, N297A, name in Kabat numbering)
# light: B1 light with T36K, V61S
# heavy: B1 heavy
# chain: B1 chain
# Biological target: T1, CD3 epsilon homodimer protein (UniProt P07766 23-126)
# T1 construct: Construct of the homodimer is not described; also called CD3 (CD3 epsilon)
# T1 sequence (P07766 23-126): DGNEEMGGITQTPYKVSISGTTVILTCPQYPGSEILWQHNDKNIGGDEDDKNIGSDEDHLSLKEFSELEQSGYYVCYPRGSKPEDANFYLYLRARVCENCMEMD
# Test: SPR Biacore T200, CD3e homodimer on chip, antibody analyte;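 also: CD3 epsilon homodimer amine-coupled on CM4 sensor chip, antibodies injected as analyte at 25 °C in HBS-EP+, ratio ≥0.8 taken as binding retained versus unaltered parent antibody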
row,ratio of amounts bound (altered form/GLS3000),Binder
1,0.95,B1
2,0.57,B2
3,1.26,B3
4,0.5,B4
5,0.48,B5
6,0.78,B6
7,0.44,B7
8,0.81,B8
9,0.32,B9
10,0.34,B10
11,0.66,B11
12,0.31,B12
13,0.32,B13
14,1.05,B14
15,0.89,B15
16,1.46,B16
17,0.71,B17

row,ratio of amounts bound (altered form/GLS3000),Binder
1,0.44,B18
2,0.49,B19
3,0.84,B20
4,0.97,B21
5,0.26,B22
6,0.18,B23
7,0.64,B24
8,0.31,B25
9,0.96,B26
10,0.63,B27
11,0.42,B28
12,1.38,B29
13,0.17,B30
14,0.76,B31
15,0.66,B32
16,1.04,B33
